Test [1] deals with T1, ADAM 10 (human) Cat/Dis (Homo sapiens, UniProt O14672).
T1 construct: containing the catalytic/disintegrin domains; purchased R & D Systems (Minneapolis, Minn., USA)
T1 sequence (O14672 214-672 limits assumed): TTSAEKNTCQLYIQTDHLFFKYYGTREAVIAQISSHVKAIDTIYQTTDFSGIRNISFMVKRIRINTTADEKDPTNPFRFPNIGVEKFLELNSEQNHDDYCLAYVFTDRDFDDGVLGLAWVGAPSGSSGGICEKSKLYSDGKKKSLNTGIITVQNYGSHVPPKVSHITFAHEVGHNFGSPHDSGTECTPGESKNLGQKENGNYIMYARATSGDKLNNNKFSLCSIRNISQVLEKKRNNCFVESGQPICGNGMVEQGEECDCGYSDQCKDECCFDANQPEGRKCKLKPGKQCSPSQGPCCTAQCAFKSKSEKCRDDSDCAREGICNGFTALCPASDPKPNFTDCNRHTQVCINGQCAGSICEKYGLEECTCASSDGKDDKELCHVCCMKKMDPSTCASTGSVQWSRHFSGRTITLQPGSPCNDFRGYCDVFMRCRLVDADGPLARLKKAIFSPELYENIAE
The experiment in a line: Inhibition assay with ADAM10 catalytic/disintegrin construct, fluorescent substrate. It is filed as biochemical. How it is done: (§1) Inhibition assays with TACE and ADAM 10. Activity of TACE catalytic/disintegrin, TACE catalytic, or ADAM10 catalytic/disintegrin constructs was monitored at 3 minute intervals using the fluorescent substrate, Dabcyl-LAQAHomoPheRSC(Fluorescein)-NH2 (SEQ ID NO 17) with excitation 485 nm and emission 530 nm. The substrate was diluted from a 10 mM stock in DMSO to 10 μM in assay buffer containing 20 mM Tris, pH 8.0, and 0.0006% Brij-35. Reactions were run in a 96-well black-coated plate with either ADAM10 prodomain (10 nM-1.0 μM) alone or with enzyme. Concentrations of enzyme ranged from 0.5-2.0 nM for TACE and 5-15 nM for ADAM10. For assays with TACE and ADAM8 prodomain, the range of concentrations varied from 1-4.7 μM.
(§2) Calculation of inhibition constants. The amount of activity was calculated by subtracting the ADAM 10 prodomain control from the ADAM 10 prodomain with enzyme. All inhibition assays were performed at room temperature and the data fit to the following equation using Sigma Plot software:
(§3) [formula] where If is fractional inhibition, I is the inhibitor concentration and Ki is the inhibition constant.
Wild type ADAM 10 prodomain (23-213) was tested to determine the mode of inhibition of ADAM 10 protein. ADAM 10 protein was diluted 1:100 in buffer 25 mM Tris pH 8, 0.0006% Brij-35 and then 10 μl was added to 88 μl of substrate (20-100 μM), Dabcyl-LAQAHomoPheRSC(Fluorescein)-NH2 with excitation 485 nm and emission 530 nm. Prodomain, 2 μl, in 25 mM Tris, pH 8, 100 mM NaCl, 10% glycerol, 0.1% mercaptoethanol, and 50 μM CaCl2 was added to substrate before addition of enzyme. The final concentration of prodomain ranged from 17-170 nM. The fluorescence vs time was plotted, and slopes were taken from straight line fits of initial velocities. The reciprocal of the velocities was plotted vs the reciprocal of substrate squared since the normal Lineweaver Burke plot gave curved lines. The initial velocities vs substrate concentrations were fit as a family of curves to several allosteric models.

In test [2] the target is T2, ADAM 8 (mouse) catalytic domain (Mus musculus, UniProt Q05910).
T2 construct: The ADAM 8 catalytic domain was expressed and purified from E. coli as described (22); made in house; host or cells: E. coli
T2 sequence (Q05910 196-395 limits assumed): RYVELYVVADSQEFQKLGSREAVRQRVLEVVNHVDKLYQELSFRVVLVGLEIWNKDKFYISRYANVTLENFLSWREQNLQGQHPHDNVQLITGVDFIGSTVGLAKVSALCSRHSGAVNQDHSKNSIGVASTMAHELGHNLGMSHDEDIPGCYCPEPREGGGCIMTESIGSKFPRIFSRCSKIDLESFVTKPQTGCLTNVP
Description: Inhibition assay with ADAM 8 catalytic domain. To be noted: at 1.7 μM. The class given is biochemical. How it is done: Inhibition assays with ADAM 8. The ADAM 8 catalytic domain was expressed and purified from E. coli as described (22). A substrate based on the L-selectin cleavage site, Dnp-INorIeuQKLDKSFSMIKE-NH2 (SEQ ID NO 20), was used to monitor enzyme activity with a fluorescamine assay. From a concentrated 50 mM solution in DMSO, the substrate was diluted 1:500 in 25 mM HEPES, pH 8.0, 0.0006% Brij-35. To 100 μl of diluted substrate was added either 5 μl of buffer (Tris, pH 8.0, 150 mM KCl) or 5 μl of ADAM10 prodomain (1-10 μM). Zero time points were taken by diluting 12.5 μl of the reaction mixture into 100 μl of fluorescamine buffer (50 mM HEPES, pH 8.0, 0.2 M NaCl, 0.01 M CaCl2, 0.01% Brij-35) in a 96-well black-coated plate. Before measuring fluorescence, 3 μl of a 1% solution of fluorescamine in DMSO was added to each well. The plate was allowed to incubate for 10 min in the dark before measuring fluorescence (excitation wavelength at 390 nm, emission wavelength at 485 nm). For assays with TACE and ADAM8 prodomains, a fluorescent substrate was used to monitor activity at concentrations of prodomains ranging from 1-4.7 μM.
Calculation of inhibition constants. The amount of activity was calculated by subtracting the ADAM 10 prodomain control from the ADAM 10 prodomain with enzyme. […]

In test [3] the target is T3, TACE (human) Cat (Homo sapiens, UniProt P78536).
T3 construct: TACE catalytic domain, Marcos Milla, University of Pennsylvania; donated by Marcos Milla, University of Pennsylvania
The experiment in a line: Inhibition assay with TACE catalytic domain, fluorescent substrate. The class given is biochemical. To be noted: at 3.5 μM. The method, then: as §1, §2, §3

For test [4], the target named is T4, TACE (human) Cat/Dis (Homo sapiens, UniProt P78536).
T4 construct: containing the catalytic/disintegrin domains; purchased R & D Systems (Minneapolis, Minn., USA)
The experiment in a line: Inhibition assay with TACE catalytic/disintegrin construct, fluorescent substrate. The class given is biochemical. How it is done:
as §1, §2, §3

The test system of test [5] is MMP 1, 2, 3, 9, 13, 14. Description: Inhibition assays with MMPs. The class given is biochemical. To be noted: 3 μM prodomain. The method, then: Inhibition assays with MMPs. The fluorescent substrate Dabcyl-GPLGMRGC (Fluorescein)-NH2 (SEQ ID NO 18) (10 μM) in assay buffer containing 50 mM Tris, pH 7.5, 150 mM NaCl, 2 mM CaCl2, 5 μM ZnSO4, and 0.01% Brij-35 was used to monitor enzyme activities. MMPs 1, 2, 3, 9, 13, and 14 (0.1-20 nM) were incubated with substrate in the absence or presence of prodomain (3-30 μM). Fluorescence intensities were measured every 3-5 minutes at an emission wavelength of 530 nm (excitation 485 nm).
as §2, §3

The subject of test [6] is CD23 shedding in B cells. The experiment in a line: CD23 shedding in B cells, flow cytometry. It is filed as cell-based. Conditions: 1-5 μM, 12 hr. The method, then:
The CD23 sheddase activity of ADAM 10 protein was further tested in a B-cell assay. B-cells were cultured for 12 hr in the presence or absence of IL-4 (100 ng/ml), wild type C-terminal His tagged ADAM 10 (23-213) (1-5 μM) or match diluent control (25 mM Tris-HCl pH 8, 100 mM NaCl, 10% glycerol, 0.1% β-mercaptoethanol). Cells were stained for expression of surface antigens following washing with 1% BSA/PBS. Cells were incubated for 30 minutes at 4° C. in the dark with fluorochrome-conjugated mAbs: APC-CD19 (CALTAG, Burlingame, Calif.), CD23-PE, mlgG1-PE (BD Biosciences) before washing to remove unbound mAb. Cells were resuspended in PBS and immediately analyzed with the use of the FACS Calibur (BD Biosciences). The software program FlowJo (Ashland, Oreg.) was used to analyze data generated by flow cytometry.

Non-standard residues stand in square brackets, D forms with d. Primed or numbered codes have the meaning given here. *: point of attachment. Fluorescein = fluorescein label attached to the cysteine side chain; Dabcyl′ = CN(C)c1ccc(/N=N/c2ccc(C(=O)*)cc2)cc1; hPhe = N[C@@H](CCc1ccccc1)C(=O)O

T4 sequence (P78536 215-671 limits assumed): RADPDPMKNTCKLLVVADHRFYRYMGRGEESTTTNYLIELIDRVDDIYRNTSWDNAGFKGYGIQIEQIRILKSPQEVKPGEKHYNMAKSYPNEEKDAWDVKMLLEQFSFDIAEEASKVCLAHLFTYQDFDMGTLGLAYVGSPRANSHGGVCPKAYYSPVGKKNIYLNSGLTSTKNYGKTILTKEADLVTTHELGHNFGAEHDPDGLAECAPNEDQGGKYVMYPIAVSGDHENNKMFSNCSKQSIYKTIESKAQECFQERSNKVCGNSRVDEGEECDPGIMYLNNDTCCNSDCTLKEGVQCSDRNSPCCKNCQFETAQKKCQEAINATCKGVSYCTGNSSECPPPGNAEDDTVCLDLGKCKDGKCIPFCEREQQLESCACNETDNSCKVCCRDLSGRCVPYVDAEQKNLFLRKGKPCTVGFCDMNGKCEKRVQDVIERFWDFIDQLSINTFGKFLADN
T3 sequence (P78536 223-474 limits assumed): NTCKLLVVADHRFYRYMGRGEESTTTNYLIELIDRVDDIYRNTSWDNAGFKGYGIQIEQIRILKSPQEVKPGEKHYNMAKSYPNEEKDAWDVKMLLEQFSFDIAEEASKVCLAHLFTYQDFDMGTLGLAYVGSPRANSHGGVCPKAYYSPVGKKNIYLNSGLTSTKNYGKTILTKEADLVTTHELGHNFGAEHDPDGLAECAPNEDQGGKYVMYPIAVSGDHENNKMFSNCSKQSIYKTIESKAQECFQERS

“Dabcyl-LAQAHomoPheRSC(Fluorescein)-NH2 ({Dabcyl′}-LAQA[hPhe]RSC(Fluorescein)-NH2) [fluorescent substrate for TACE and ADAM10 assays, reference compound]”: in test [1] (fit to pure competitive allosteric model), the “binding constant, Ks for substrate” value amounted to 16 ± 4.6 µM.

B1: Pro ADAM 17 (mouse): prodomain of mouse TACE (ADAM 17), residues 18-214, His-tagged, expressed in E. coli (protein)
chain: PRPPEEAGSGSHPRLEKLDSLLSDYDILSLANIQQHSIRKRDLQSATHLETLLTFSALKRHFKLYLTSSTERFSQNLRVVVVDGKEESEYSVKWQNFFSGHVVGEPDSRVLAHIGDDDVTVRINTDGAEYNVEPLWRFVNDTKDKRMLVYKSEDIKDFSRLQSPKVCGYLNADSEELLPKGLIDREPSEEFVRRVKR
modifications: left off: small tags and cut ends
notes: prodomain of mouse TACE (ADAM 17), residues 18-214, His-tagged, expressed in E. coli
For the molecule B1, the “inhibition of ADAM 8 (mouse) Cat” value in test [2] is reported as 17% at 1.7 μM. Also, the “inhibition of ADAM 10 (human) Cat/Dis” value in test [1] (at 3.5 μM) amounted to 11% at 3.5 μM. Also, the “inhibition of TACE (human) Cat” value in test [3] came out at 37%. In test [4] (at 3.5 μM), the “inhibition of TACE (human) Cat/Dis” value stood at 0%. For the same molecule, the “inhibition of respective enzyme (TACE) by its prodomain” value in test [4] (micromolar concentrations) is “did not inhibit”.

B2: wt ProADAM 10 23-213 (N-terminal His tag): wild type mouse ADAM 10 prodomain, amino acids 23-213, N-terminal His tag, expressed in E. coli (protein)
chain: NPLNKYIRHYEGLSYNVDSLHQKHQRAKRAVSHEDQFLLLDFHAHGRQFNLRMKRDTSLFSDEFKVETSNKVPDYDTSHIYTGHIYGEEGSFSHGSVIDGRFEGFIKTRGGTFYIEPAERYIKDRILPFHSVIYHEDDINYPHKYGPQGGCADHSVFERMRKYQMTGVEEGARAHPEKHAASSGPELLRKK
modifications: left off: small tags and cut ends
notes: wild type mouse ADAM 10 prodomain, amino acids 23-213, N-terminal His tag, expressed in E. coli
With B2, the “inhibition of matrix metalloproteinases 1, 2, 3, 9, 13 and 14” value in test [5] was “not inhibited”.

B3: wt ProADAM 10 23-213 (C-terminal His tag): wild type mouse ADAM 10 prodomain, amino acids 23-213, C-terminal His tag, expressed in E. coli (protein)
chain: NPLNKYIRHYEGLSYNVDSLHQKHQRAKRAVSHEDQFLLLDFHAHGRQFNLRMKRDTSLFSDEFKVETSNKVPDYDTSHIYTGHIYGEEGSFSHGSVIDGRFEGFIKTRGGTFYIEPAERYIKDRILPFHSVIYHEDDINYPHKYGPQGGCADHSVFERMRKYQMTGVEEGARAHPEKHAASSGPELLRKKHHHHHH
B3: in test [5], the “inhibition of matrix metalloproteinases 1, 2, 3, 9, 13 and 14” value is on record as “not inhibited”. In test [6] (IL-4 100 ng/ml, FIG. 2D), the “inhibition of shedding in B cells stimulated with IL-4” value is on record as “able to inhibit shedding”. In addition, in test [6] (without IL-4, FIG. 2C), the “inhibition of shedding in B cells” value is given as “able to inhibit shedding”. Moreover, in test [1] (initial velocities fit to allosteric models), the “mode of inhibition of ADAM 10 protein” value was “pure competitive”.
